Test results reported in patent US20220168440A1, “ANTIBODY-PYRROLOBENZODIAZEPINE DEPRIVATIVE CONJUGATE” (DAIICHI SANKYO COMPANY, LIMITED, priority 2019, published 2022).
Numbering of substitutions follows the chain as printed.

B1: mouse anti-CLDN6 antibody B1 (antibody, V domains shown)
VH: EVQLQQSGPELVKPGASVKISCKTSGYTFTEYTMHWVQQSHGKSLEWIGGVNPNSGDTSYNQKFKGKATLTVDKSSSTAYMELRSLTSEDSAVYYCARPGGYDVGYYAMDYWGQGTSVTVSS
VL: DIQMTQTASSLSASLGDRVTISCRASQDINNYLNWYQQKPDGTVKLLIYFTSRLHSGVPSRFSGSGSGTHYSLTITNLEQEDIATYFCQQGYPLPWTFGGGTKLEIK
notes: Mouse monoclonal antibody purified from hybridoma 218B1 culture supernatant; a mouse IgG1 antibody was used as the control; also called B1 antibody; 218B1 antibody
B2: mouse anti-CLDN6 antibody C7 (antibody, V domains shown)
VH: B1 VH
VL: B1 VL with F50S, N77H
notes: Mouse monoclonal antibody purified from hybridoma 218C7 culture supernatant; a mouse IgG1 antibody was used as the control; also called C7 antibody; 218C7 antibody

How the values were obtained:
[1] = test system: KPL-4 cells; assay: Cell growth inhibition of drug 1 (4), CellTiter-Glo; format: cell-based; conditions: KPL4, 144 h; human breast cancer cell line; 6 days culture; read-out: anticellular effect IC50 on KPL-4 cells
Procedure: KPL-4 cells (Dr. Junichi Kurebayashi, Kawasaki Medical School, British Journal of Cancer, (1999) 79(5/6). 707-717), a human breast cancer cell line, were prepared with RPMI1640 Medium (Thermo Fisher Scientific; hereinafter, referred to as RPMI medium) containing 10% fetal bovine serum (Hyclone) to reach 6.25×10^3 cells/mL, and 80 μL portions of them were added to a 96-well cell culture microplate. After addition of the cells, the cells were cultured at 37° C. and 5% CO2 overnight.
On the next day, 20 μL portions of drug 1 diluted with RPMI medium to 100 nM, 20 nM, 4 nM, 0.8 nM, 0.16 nM, 0.032 nM, 6.4 pM, 1.3 pM, and 0.26 pM were added to the microplate. To each well without any antibody-drug conjugate, 20 μL of RPMI medium was added. KPL-4 was cultured at 37° C. and 5% CO2 for 6 days. After culturing, the microplate was taken out of the incubator, and left to stand at room temperature for 30 minutes. CellTiter-Glo Luminescent Cell Viability Assay (Promega Corporation) in an amount equivalent to that of the culture solution was added, and stirred using a plate mixer. The microplate was left to stand at room temperature for 10 minutes, and thereafter the amount of emission was measured by using a plate reader (PerkinElmer). Cell survival rates were calculated by using the same formula as in Example 37.

[2] = molecular target: T1, human CLDN3 (human, UniProt O15551 1-220); assay: flow cytometry on transiently transfected 293T cells
T1 construct: whole, on cells
T1 sequence (looked up): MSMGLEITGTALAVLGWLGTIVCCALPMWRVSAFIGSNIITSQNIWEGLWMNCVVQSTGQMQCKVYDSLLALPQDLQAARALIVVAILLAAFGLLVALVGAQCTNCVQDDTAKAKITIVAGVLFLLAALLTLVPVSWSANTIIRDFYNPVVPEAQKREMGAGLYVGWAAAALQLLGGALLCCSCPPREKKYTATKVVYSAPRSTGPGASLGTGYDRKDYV
Procedure: (§1) Binding activity of the mouse anti-CLDN6 antibodies produced in Example 6 to human CLDN6 and its family molecules, CLDN3, CLDN4, and CLDN9, was evaluated by using a flow cytometry method. Human CLDN3/pCMV6-Entry, human CLDN4/pCMV6-Entry, human CLDN6/pCMV-Entry, human CLDN9/pCMV6-Entry, or pCMV6-Entry purchased from OriGene Technologies, Inc. was transiently transferred into 293T cells (Thermo Fisher Scientific, HCL4517) by using Lipofectamine 2000 (Thermo Fisher Scientific), and the cells were cultured under conditions of 37° C. and 5% CO₂ overnight, and then a cell suspension was prepared. […] The cells were washed twice with Dulbecco's phosphate buffered saline (Sigma-Aldrich Co. LLC) containing 5% fetal bovine serum (Hyclone) (hereinafter, referred to as 5% FBS-containing PBS), and FLUORESCEIN-CONJUGATED GOAT IGG FRACTION TO MOUSE IGG (WHOLE MOLECULE) (MP Biomedicals, Inc.) 500-fold diluted with 5% FBS-containing PBS was then added thereto, and the cells were suspended and left to stand at 4° C. for 1 hour. After washing twice with 5% FBS-containing PBS, detection was carried out by using a flow cytometer (FC500; Beckman Coulter, Inc.). Data analysis was carried out by using FlowJo (Tree Star, Inc.). […] In each graph in FIG. 40, the ordinate represents FITC fluorescence intensity indicating the amount of the binding antibody and the abscissa represents antibody concentrations.
(§2) The binding activity of the humanized anti-CLDN6 antibody produced in Example 10 to human CLDN6 and its family molecules, CLDN3, CLDN4, and CLDN9, was evaluated by using a flow cytometry method.

[3] = molecular target: T2, human CLDN4 (human, UniProt O14493 1-209); assay: as above
T2 construct: whole, on cells
T2 sequence (looked up): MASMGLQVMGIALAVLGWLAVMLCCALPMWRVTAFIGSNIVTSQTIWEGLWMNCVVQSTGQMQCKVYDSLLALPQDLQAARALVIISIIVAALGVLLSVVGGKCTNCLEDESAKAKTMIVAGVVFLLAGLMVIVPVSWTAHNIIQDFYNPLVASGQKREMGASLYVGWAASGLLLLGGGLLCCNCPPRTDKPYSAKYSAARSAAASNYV
Procedure: as §1, §2

[4] = molecular target: T3, human CLDN9 (human, UniProt O95484 1-217); assay: as above
T3 construct: NP_066192; It was expressed on 293T cells transiently transfected with human CLDN9/pCMV6-Entry (OriGene); also called claudin-9
T3 sequence: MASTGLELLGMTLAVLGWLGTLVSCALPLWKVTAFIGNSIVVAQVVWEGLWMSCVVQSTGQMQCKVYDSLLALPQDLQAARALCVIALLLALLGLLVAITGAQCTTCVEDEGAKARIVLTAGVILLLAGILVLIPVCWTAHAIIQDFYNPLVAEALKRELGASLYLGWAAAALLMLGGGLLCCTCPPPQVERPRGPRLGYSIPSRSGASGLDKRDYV
Procedure: as §1, §2

[5] = molecular target: T4, human CLDN6 (human, UniProt P56747 1-220); assay: immunoprecipitation from NTERA-2 cell lysate, SDS-PAGE, mass spectrometry of the 18 kDa band
T4 construct: Four-transmembrane protein, NP_067018; It was also expressed on CHO-K1 cells by cDNA transfection; In the immunoprecipitation it was the endogenous protein from NTERA-2 cell lysate; also called hCLDN6; claudin-6
T4 sequence: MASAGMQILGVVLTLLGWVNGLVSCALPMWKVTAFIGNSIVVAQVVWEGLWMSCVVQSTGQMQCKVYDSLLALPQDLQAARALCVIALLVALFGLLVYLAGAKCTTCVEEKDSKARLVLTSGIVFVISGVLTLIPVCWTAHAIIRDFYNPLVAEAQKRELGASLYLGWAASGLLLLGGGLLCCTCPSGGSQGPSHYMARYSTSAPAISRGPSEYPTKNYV

[6] = molecular target: T4, human CLDN6; assay: FACS on CHO-K1 cells transfected with human claudin-6 cDNA

| Molecule | IC50 [1] | binding result [2] | binding result [3] | binding result [4] | binding result [5] | binding result [6] |
| --- | --- | --- | --- | --- | --- | --- |
| COc1ccc(C2=CN3C(=O)c4cc(OC)c(OCCCCCOc5cc6c(cc5OC)C(=O)N5CC7(CC7)C[C@H]5C=N6)cc4NC[C@@H]3C2)cc1 [Drug 1, (11a′S)-7′-Methoxy-8′-[(5-{[(11aS)-7-methoxy-2-(4-methoxyphenyl)-5-oxo-5,10,11,11a-tetrahydro-1H-pyrrolo[2,1-c][1,4]benzodiazepin-8-yl]oxy}pentyl)oxy]-1′,11a′-dihydro-5′H-spiro[cyclopropane-1,2′-pyrrolo[2,1-c][1,4]benzodiazepine]-5′-one] | 0.01 to 0.02 nM | – | – | – | – | – |
| B1 | – | no binding (tested: 30 µg/mL (highest concentration tested)) | no binding (tested: 30 µg/mL (highest concentration tested)) | binds | binds | – |
| B2 | – | no binding (tested: 30 µg/mL (highest concentration tested)) | no binding (tested: 30 µg/mL (highest concentration tested)) | binds | – | binds |
